We go through one molecule from patent publication US20260274944A1.

This assay deals with RAGE (the receptor of interest on CHO cell lines; human or mouse not told). The assay can be described thus: cell-based or functional assay.

B1: VHH 5-LNP (protein)
VHH: EVQLVESGGGLVQPGGSLRLSCAASGTIFSLNPMGWYRQAPGKQLELVALISDSGTANYADFVRGRFTISRDTTKKTLYLQMNSLEPEDTAVYYCRSTFAAGNFYWGQGTQVTVSS
modifications: here or on the partner: BCN (bicyclo[6.1.0]nonyne) selectively conjugated to the VHH and clicked to DOPE-PEG2000-N3 on the surface of a lipid nanoparticle loaded with luciferase mRNA
With B1, the cellular delivery of FLuc mRNA (luminescence), fold against control LNP fell in the range of 3 to 5 fold.
